The target in assay [1] is T1, CCR4 expressed on 293/EBNA-1 cells (human, UniProt P51679 1-360).
T1 construct: whole, on cells; also called CCR4 receptor
T1 sequence (looked up): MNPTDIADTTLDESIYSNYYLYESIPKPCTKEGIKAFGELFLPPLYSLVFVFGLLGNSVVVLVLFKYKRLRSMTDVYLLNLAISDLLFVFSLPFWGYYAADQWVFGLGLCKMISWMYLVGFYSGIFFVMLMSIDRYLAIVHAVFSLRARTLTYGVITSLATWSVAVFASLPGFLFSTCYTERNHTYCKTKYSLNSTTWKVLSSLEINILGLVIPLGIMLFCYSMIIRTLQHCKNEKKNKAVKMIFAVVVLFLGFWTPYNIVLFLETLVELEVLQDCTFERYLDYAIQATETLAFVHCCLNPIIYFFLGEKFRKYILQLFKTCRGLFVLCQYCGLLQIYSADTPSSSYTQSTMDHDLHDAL
Nature of the assay: displacement of 1 nM TARC-SEAP from 4x10^5 293/EBNA-1 cells expressing CCR4 by unlabeled TARC. As for the experimental part:
The binding experiment was conducted in 200 μl RPMI-1640 containing 20 mM HEPES (pH 7.4), 1% BSA, and 0.02% sodium azide. […] Cells were washed and dissolved in 50 μl 10 mM Tris-HCl (pH 8.0) containing 1% Triton X-100, and treated at 65° C. for 10 minutes to inactivate the phosphatase originated from the cells. After centrifugation, the AP activity in 25 μl of the supernatant was measured. The nonspecific binding was measured using 1 nM SEAP.

Assay [2] has as its target T2, receptor for TARC on Jurkat cell and certain other T-cells.
T2 construct: also called TARC receptor; receptors for TARC
The assay is described as follows: displacement of 2 nM 125I-labeled TARC from Jurkat cells by unlabeled TARC, Scatchard analysis.

Assay [3] addresses T3, Duffy antigen/receptor for chemokine (DARC) on erythrocytes (UniProt Q16570 1-336).
T3 construct: whole, on cells
T3 sequence (looked up): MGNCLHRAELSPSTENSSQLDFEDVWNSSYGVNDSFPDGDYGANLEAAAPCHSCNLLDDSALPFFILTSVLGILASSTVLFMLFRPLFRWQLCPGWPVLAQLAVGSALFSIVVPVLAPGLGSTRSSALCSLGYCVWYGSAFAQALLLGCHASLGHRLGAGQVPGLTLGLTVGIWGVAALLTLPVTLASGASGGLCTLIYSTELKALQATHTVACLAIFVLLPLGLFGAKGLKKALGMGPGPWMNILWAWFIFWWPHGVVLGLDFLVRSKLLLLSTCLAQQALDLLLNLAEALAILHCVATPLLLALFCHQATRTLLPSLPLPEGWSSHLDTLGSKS
Nature of the assay: displacement of 0.66 nM 125I-labeled TARC from 10^8 erythrocytes by unlabeled TARC, Scatchard analysis. An excerpt: It has been known that erythrocyte expresses a Duffy antigen/receptor for chemokine (DARC) to which various chemokines can be bound.

Assay [4] concerns the target T2, receptor for TARC on Jurkat cell and …. Nature of the assay: saturation binding of 125I-labeled TARC to Jurkat cells, Scatchard analysis. An excerpt:
To determine the binding constant and the number of receptor, conditions under which the binding reaches equilibrium were examined.

B1: human TARC (Thymus and Activation-Regulated Chemokine), mature secreted form, expressed in and purified from insect cells (ligand)
chain: ARGTNVGRECCLEYFKGAIPLRKLKTWYQTSEDCSRDAIVFVTVQGRAICSDPNNKRVKNAVKYLQSLERS
notes: also called hTARC; unlabeled TARC
For B1, the IC50 (in general, the concentration needed to halve the response being measured) in assay [1] was about 3 nM. Also, the equilibrium dissociation constant (Kd) (in general, the free concentration of one partner at which half of the binding sites on the other are occupied at equilibrium, for simple one-to-one binding) in assay [2] was 2.1 nM; in assay [3], 17 nM.

B2: 125I-labeled human TARC (ligand)
chain: ARGTNVGRECCLEYFKGAIPLRKLKTWYQTSEDCSRDAIVFVTVQGRAICSDPNNKRVKNAVKYLQSLERS
modifications: 125I label introduced with 125I-labeled Bolton-Hunter reagent (site not stated)
notes: specific activity 81.6 uCi/ug
Take B2: the Kd in assay [4] is 2.1 nM. This lies in the single-digit nanomolar range.

The record behind these values is patent publication US6793917 (SHIONOGI, dated 2004).
